Measurements reported in article PMC3230118.

Target: Ub-NpuN fusion protein bearing the wild-type N-intein sequence (NpuNWT), C1A (not stated | Nostoc punctiforme) (UniProt P0CG48)
Assay: other fluorescence titration

Substance: NpuC-SUMO fusion protein bearing the wild-type C-intein sequence (NpuCWT) (domain or fragment)
- Kd: 2.9 nM
